Reference: article PMC8219681, “Inhibition of MRN activity by a telomere protein motif” (Nature Communications, 2021)

B1: Rad50 (S. cerevisiae, FLAG-tagged at the C terminus) [S. cerevisiae] / MBP-Rif2 (S. cerevisiae Rif2, wild type) [S. cerevisiae] (parent complex)
chain 1: MSAIYKLSIQGIRSFDSNDRETIEFGKPLTLIVGMNGSGKTTIIECLKYATTGDLPPNSKGGVFIHDPKITGEKDIRAQVKLAFTSANGLNMIVTRNIQLLMKKTTTTFKTLEGQLVAINNSGDRSTLSTRSLELDAQVPLYLGVPKAILEYVIFCHQEDSLWPLSEPSNLKKKFDEIFQAMKFTKALDNLKSIKKDMSVDIKLLKQSVEHLKLDKDRSKAMKLNIHQLQTKIDQYNEEVSEIESQLNEITEKSDKLFKSNQDFQKILSKVENLKNTKLSISDQVKRLSNSIDILDLSKPDLQNLLANFSKVLMDKNNQLRDLETDISSLKDRQSSLQSLSNSLIRRQGELEAGKETYEKNRNHLSSLKEAFQHKFQGLSNIENSDMAQVNHEMSQFKAFISQDLTDTIDQFAKDIQLKETNLSDLIKSITVDSQNLEYNKKDRSKLIHDSEELAEKLKSFKSLSTQDSLNHELENLKTYKEKLQSWESENIIPKLNQKIEEKNNEMIILENQIEKFQDRIMKTNQQADLYAKLGLIKKSINTKLDELQKITEKLQNDSRIRQVFPLTQEFQRADLEMDFQKLFINMQKNIAINNKKMHELDRRYTNALYNLNTIEKDLQDNQKSKEKVIQLLSENLPEDCTIDEYNDVLEETELSYKTALENLKMHQTTLEFNRKALEIAERDSCCYLCSRKFENESFKSKLLQELKTKTDANFEKTLKDTVQNEKEYLHSLRLLEKHIITLNSINEKIDNSQKCLEKAKEETKTSKSKLDELEVDSTKLKDEKELAESEIRPLIEKFTYLEKELKDLENSSKTISEELSIYNTSEDGIQTVDELRDQQRKMNDSLRELRKTISDLQMEKDEKVRENSRMINLIKEKELTVSEIESSLTQKQNIDDSIRSKRENINDIDSRVKELEARIISLKNKKDEAQSVLDKVKNERDIQVRNKQKTVADINRLIDRFQTIYNEVVDFEAKGFDELQTTIKELELNKAQMLELKEQLDLKSNEVNEEKRKLADSNNEEKNLKQNLELIELKSQLQHIESEISRLDVQNAEAERDKYQEESLRLRTRFEKLSSENAGKLGEMKQLQNQIDSLTHQLRTDYKDIEKNYHKEWVELQTRSFVTDDIDVYSKALDSAIMKYHGLKMQDINRIIDELWKRTYSGTDIDTIKIRSDEVSSTVKGKSYNYRVVMYKQDVELDMRGRCSAGQKVLASIIIRLALSETFGANCGVIALDEPTTNLDEENIESLAKSLHNIINMRRHQKNFQLIVITHDEKFLGHMNAAAFTDHFFKVKRDDRQKSQIEWVDINRVTY
chain 2: MEHVDSDFAPIRRSKKVVDSDKIVKAISDDLEQKNFTVLRKLNLVPIKKSVSSPKVCKPSPVKERVDHVFYQKFKSMALQELGTNYLSISYVPSLSKFLSKNLRSMKNCIVFFDKVEHIHQYAGIDRAVSETLSLVDINVVIIEMNDYLMKEGIQSSKSKECIESMGQASYSGQLDFEASEKPSNHTSDLMMMVMRKINNDESIDHIVYFKFEQLDKLSTSTIIEPSKLTEFINVLSVLEKSNNIAFKVLIYSNNVSISSLLSTSLKKKLNTKYTVFEMPILTCAQEQEYLKKMIKFTFDSGSKLLQSYNSLVTCQLNNKESNLAIFFEFLKVFPHPFTYLFNAYTEIIVQSRTFDELLDKIRNRLTIKNYPHSAYNFKKNQRLPLKLTRKVHDR

Variants of: B1
Test: pull-down (amylose-immobilized MBP-Rif2 bait, Western blot with anti-Rad50 antibody, quantified); three independent blots; mean with SEM; parent: 100; read off a plot

percent of parent	Variant
~16 Relative value	chain 1 K81I
